Assays:
[1] = molecular target: FcγRIIA H131 (SPR assay) (UniProt P12318); experiment: SPR; FcγRIIA, FcγRIIB, FcγRIIIA; KD determined by the analyte concentration at which half of the ligands are occupied at equilibrium
[2] = molecular target: FcγRIIB (SPR assay) (UniProt P31994); experiment: as above
[3] = molecular target: FcγRI (SPR assay) (UniProt P12314); experiment: SPR; FcγRI; KD calculated from the ratio of the kinetic constants (KD = koff/kon)
[4] = molecular target: FcγRIIIA V158; experiment: SPR; FcγRIIA, FcγRIIB, FcγRIIIA; KD determined by the analyte concentration at which half of the ligands are occupied at equilibrium
[5] = molecular target: FcγRIIA R131 (SPR assay); experiment: as above
[6] = molecular target: FcγRIIIA F158 (UniProt P08637); experiment: as above
UniProt P08637, sequence (P08637 17-254): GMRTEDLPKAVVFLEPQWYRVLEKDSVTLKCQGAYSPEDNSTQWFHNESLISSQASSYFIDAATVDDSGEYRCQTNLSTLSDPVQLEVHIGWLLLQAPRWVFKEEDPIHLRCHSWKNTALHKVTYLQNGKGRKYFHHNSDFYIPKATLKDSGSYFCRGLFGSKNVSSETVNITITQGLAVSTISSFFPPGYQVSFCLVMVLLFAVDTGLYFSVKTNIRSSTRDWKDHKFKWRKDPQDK

UniProt P12314, sequence (P12314 16-374): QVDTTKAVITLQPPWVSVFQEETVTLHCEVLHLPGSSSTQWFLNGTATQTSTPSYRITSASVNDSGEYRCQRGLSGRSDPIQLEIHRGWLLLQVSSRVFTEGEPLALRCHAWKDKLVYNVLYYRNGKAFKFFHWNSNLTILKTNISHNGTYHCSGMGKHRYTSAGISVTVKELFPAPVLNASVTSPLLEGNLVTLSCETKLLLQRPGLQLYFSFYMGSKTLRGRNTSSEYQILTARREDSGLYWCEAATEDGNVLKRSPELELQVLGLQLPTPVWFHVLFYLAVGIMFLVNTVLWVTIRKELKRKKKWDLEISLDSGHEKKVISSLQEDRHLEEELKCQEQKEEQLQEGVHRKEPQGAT
UniProt P31994, sequence (P31994 43-310): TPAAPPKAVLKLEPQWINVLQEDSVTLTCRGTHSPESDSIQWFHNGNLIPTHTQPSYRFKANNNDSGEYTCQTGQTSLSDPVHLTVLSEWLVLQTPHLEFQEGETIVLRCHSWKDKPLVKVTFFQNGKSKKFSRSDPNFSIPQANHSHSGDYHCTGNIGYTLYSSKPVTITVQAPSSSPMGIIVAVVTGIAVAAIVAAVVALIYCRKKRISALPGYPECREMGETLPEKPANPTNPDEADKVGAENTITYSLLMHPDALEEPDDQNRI
UniProt P12318, sequence (P12318 34-317): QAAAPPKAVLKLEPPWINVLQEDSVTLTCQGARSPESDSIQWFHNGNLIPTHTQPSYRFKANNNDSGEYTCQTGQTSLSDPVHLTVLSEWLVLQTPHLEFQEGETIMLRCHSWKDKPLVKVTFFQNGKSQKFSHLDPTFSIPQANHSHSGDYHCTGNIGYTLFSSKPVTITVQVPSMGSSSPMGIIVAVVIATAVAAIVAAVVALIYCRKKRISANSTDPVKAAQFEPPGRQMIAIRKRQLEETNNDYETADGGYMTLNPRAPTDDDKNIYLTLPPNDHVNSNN

| Molecule | Kd [1] | Kd [2] | Kd [3] | Kd [4] | Kd [5] | Kd [6] |
| --- | --- | --- | --- | --- | --- | --- |
| Ociperlimab (BGB-A1217), humanized IgG1 anti-human TIGIT antibody with wild-type IgG1 Fc | 965 nM | 2840 nM |  |  |  |  |
| Ociperlimab (BGB-A1217), humanized IgG1 anti-human TIGIT antibody with wild-type IgG1 Fc (antibody, V domains shown) VH: EVQLVESGGGLVQPGGSLRLSCAASGFTFSDYYMYWVRQAPGKGLEWVAYITKGGGSTYYPDSVKGRFTISRDNAKNTLYLQMNSLRAEDTAVYYCARQTNYDFTMDYWGQGTLVTVSS VL: EIVMTQSPATLSVSPGERATLSCKASQDVGTSVAWYQQKPGQAPRLLIYWASARHTGIPARFSGSGSGTEFTLTISSLQSEDFAVYYCQQYSSYPLTFGGGTKVEIK |  |  | 0.0406 nM | 555 nM | 1020 nM | 2180 nM |
